Test results: doi:10.1101/2024.11.06.622200

Target: purified recombinant myristoylated HIV-1 matrix protein (myrMA) (HIV-1 NL4-3)

Q: How did the share of sub-images contributing to mature-like MA lattice classes on lipid monolayers, with SP2 (7% mature-like and 7% immature-like without SP2) turn out when “HIV-1 spacer peptide 2 (SP2), added in vitro” was run?
A: 47%
